The binders below were run against T1, CD3ε homodimer protein (human, UniProt P07766 23-126, limits assumed, sulfo-tag or biotin label in some ECL assays) (assay: SPR, CD3ε homodimer on chip;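 further: biacore SPR with antibody variants flowed as analyte over amine-coupled CD3ε homodimer on a CM chip, bound amount of each single-residue H chain variant over that of parent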).
T1 construct: also called human CD3ε homodimer protein; CD3 (CD3ε)
T1 sequence (P07766 23-126 limits assumed): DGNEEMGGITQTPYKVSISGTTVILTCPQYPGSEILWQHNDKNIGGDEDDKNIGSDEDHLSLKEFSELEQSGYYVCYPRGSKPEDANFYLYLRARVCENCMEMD

Binder | ratio of amounts bound vs CE115HA000
CE115HA000 A99F (antibody, name in Kabat numbering, V domains shown) VH: QVQLVESGGGVVQPGRSLRLSCAASGFTFSNAWMHWVRQAPGKGLEWVAQIKAKSNNYATYYAESVKGRFTISRDDSKNSLYLQMNSLKTEDTAVYYCRYVHYGFYYGVDAWGQGTTVTVSS VL: DIVMTQSPLSLPVTPGEPASISCRSSQSLVHSNRNTYLHWYQQKPGQAPRLLIYKVSNRFSGVPDRFSGSGSGTDFTLKISRVEAEDVGVYYCGQGTQVPYTFGQGTKLEIK | 1.43
CE115HA000 A99I (antibody, name in Kabat numbering, V domains shown) VH: QVQLVESGGGVVQPGRSLRLSCAASGFTFSNAWMHWVRQAPGKGLEWVAQIKAKSNNYATYYAESVKGRFTISRDDSKNSLYLQMNSLKTEDTAVYYCRYVHYGIYYGVDAWGQGTTVTVSS VL: DIVMTQSPLSLPVTPGEPASISCRSSQSLVHSNRNTYLHWYQQKPGQAPRLLIYKVSNRFSGVPDRFSGSGSGTDFTLKISRVEAEDVGVYYCGQGTQVPYTFGQGTKLEIK | 1.13
CE115HA000 A102V (antibody, name in Kabat numbering, V domains shown) VH: QVQLVESGGGVVQPGRSLRLSCAASGFTFSNAWMHWVRQAPGKGLEWVAQIKAKSNNYATYYAESVKGRFTISRDDSKNSLYLQMNSLKTEDTAVYYCRYVHYGAYYGVDVWGQGTTVTVSS VL: DIVMTQSPLSLPVTPGEPASISCRSSQSLVHSNRNTYLHWYQQKPGQAPRLLIYKVSNRFSGVPDRFSGSGSGTDFTLKISRVEAEDVGVYYCGQGTQVPYTFGQGTKLEIK | 1.43
CE115HA000 A99S (antibody, name in Kabat numbering, V domains shown) VH: QVQLVESGGGVVQPGRSLRLSCAASGFTFSNAWMHWVRQAPGKGLEWVAQIKAKSNNYATYYAESVKGRFTISRDDSKNSLYLQMNSLKTEDTAVYYCRYVHYGSYYGVDAWGQGTTVTVSS VL: DIVMTQSPLSLPVTPGEPASISCRSSQSLVHSNRNTYLHWYQQKPGQAPRLLIYKVSNRFSGVPDRFSGSGSGTDFTLKISRVEAEDVGVYYCGQGTQVPYTFGQGTKLEIK | 0.82
CE115HA000 A99T (antibody, name in Kabat numbering, V domains shown) VH: QVQLVESGGGVVQPGRSLRLSCAASGFTFSNAWMHWVRQAPGKGLEWVAQIKAKSNNYATYYAESVKGRFTISRDDSKNSLYLQMNSLKTEDTAVYYCRYVHYGTYYGVDAWGQGTTVTVSS VL: DIVMTQSPLSLPVTPGEPASISCRSSQSLVHSNRNTYLHWYQQKPGQAPRLLIYKVSNRFSGVPDRFSGSGSGTDFTLKISRVEAEDVGVYYCGQGTQVPYTFGQGTKLEIK | 0.84
CE115HA000 A102Y (antibody, name in Kabat numbering, V domains shown) VH: QVQLVESGGGVVQPGRSLRLSCAASGFTFSNAWMHWVRQAPGKGLEWVAQIKAKSNNYATYYAESVKGRFTISRDDSKNSLYLQMNSLKTEDTAVYYCRYVHYGAYYGVDYWGQGTTVTVSS VL: DIVMTQSPLSLPVTPGEPASISCRSSQSLVHSNRNTYLHWYQQKPGQAPRLLIYKVSNRFSGVPDRFSGSGSGTDFTLKISRVEAEDVGVYYCGQGTQVPYTFGQGTKLEIK | 0.91
CE115HA000 D72E (antibody, name in Kabat numbering, V domains shown) VH: QVQLVESGGGVVQPGRSLRLSCAASGFTFSNAWMHWVRQAPGKGLEWVAQIKAKSNNYATYYAESVKGRFTISREDSKNSLYLQMNSLKTEDTAVYYCRYVHYGAYYGVDAWGQGTTVTVSS VL: DIVMTQSPLSLPVTPGEPASISCRSSQSLVHSNRNTYLHWYQQKPGQAPRLLIYKVSNRFSGVPDRFSGSGSGTDFTLKISRVEAEDVGVYYCGQGTQVPYTFGQGTKLEIK | 1.05
CE115HA000 D72V (antibody, name in Kabat numbering, V domains shown) VH: QVQLVESGGGVVQPGRSLRLSCAASGFTFSNAWMHWVRQAPGKGLEWVAQIKAKSNNYATYYAESVKGRFTISRVDSKNSLYLQMNSLKTEDTAVYYCRYVHYGAYYGVDAWGQGTTVTVSS VL: DIVMTQSPLSLPVTPGEPASISCRSSQSLVHSNRNTYLHWYQQKPGQAPRLLIYKVSNRFSGVPDRFSGSGSGTDFTLKISRVEAEDVGVYYCGQGTQVPYTFGQGTKLEIK | 1.43
CE115HA000 A99H (antibody, name in Kabat numbering, V domains shown) VH: QVQLVESGGGVVQPGRSLRLSCAASGFTFSNAWMHWVRQAPGKGLEWVAQIKAKSNNYATYYAESVKGRFTISRDDSKNSLYLQMNSLKTEDTAVYYCRYVHYGHYYGVDAWGQGTTVTVSS VL: DIVMTQSPLSLPVTPGEPASISCRSSQSLVHSNRNTYLHWYQQKPGQAPRLLIYKVSNRFSGVPDRFSGSGSGTDFTLKISRVEAEDVGVYYCGQGTQVPYTFGQGTKLEIK | 1.48
CE115HA000 D73E (antibody, name in Kabat numbering, V domains shown) VH: QVQLVESGGGVVQPGRSLRLSCAASGFTFSNAWMHWVRQAPGKGLEWVAQIKAKSNNYATYYAESVKGRFTISRDESKNSLYLQMNSLKTEDTAVYYCRYVHYGAYYGVDAWGQGTTVTVSS VL: DIVMTQSPLSLPVTPGEPASISCRSSQSLVHSNRNTYLHWYQQKPGQAPRLLIYKVSNRFSGVPDRFSGSGSGTDFTLKISRVEAEDVGVYYCGQGTQVPYTFGQGTKLEIK | 0.73

Continued, values first:

ratio of amounts bound vs CE115HA000 | Binder
1.04 | CE115HA000 D73R (antibody, name in Kabat numbering, V domains shown) VH: QVQLVESGGGVVQPGRSLRLSCAASGFTFSNAWMHWVRQAPGKGLEWVAQIKAKSNNYATYYAESVKGRFTISRDRSKNSLYLQMNSLKTEDTAVYYCRYVHYGAYYGVDAWGQGTTVTVSS VL: DIVMTQSPLSLPVTPGEPASISCRSSQSLVHSNRNTYLHWYQQKPGQAPRLLIYKVSNRFSGVPDRFSGSGSGTDFTLKISRVEAEDVGVYYCGQGTQVPYTFGQGTKLEIK
0.43 | CE115HA000 D73G (antibody, name in Kabat numbering, V domains shown) VH: QVQLVESGGGVVQPGRSLRLSCAASGFTFSNAWMHWVRQAPGKGLEWVAQIKAKSNNYATYYAESVKGRFTISRDGSKNSLYLQMNSLKTEDTAVYYCRYVHYGAYYGVDAWGQGTTVTVSS VL: DIVMTQSPLSLPVTPGEPASISCRSSQSLVHSNRNTYLHWYQQKPGQAPRLLIYKVSNRFSGVPDRFSGSGSGTDFTLKISRVEAEDVGVYYCGQGTQVPYTFGQGTKLEIK
0.63 | CE115HA000 D73T (antibody, name in Kabat numbering, V domains shown) VH: QVQLVESGGGVVQPGRSLRLSCAASGFTFSNAWMHWVRQAPGKGLEWVAQIKAKSNNYATYYAESVKGRFTISRDTSKNSLYLQMNSLKTEDTAVYYCRYVHYGAYYGVDAWGQGTTVTVSS VL: DIVMTQSPLSLPVTPGEPASISCRSSQSLVHSNRNTYLHWYQQKPGQAPRLLIYKVSNRFSGVPDRFSGSGSGTDFTLKISRVEAEDVGVYYCGQGTQVPYTFGQGTKLEIK
1.38 | CE115HA000 D101G (antibody, name in Kabat numbering, V domains shown) VH: QVQLVESGGGVVQPGRSLRLSCAASGFTFSNAWMHWVRQAPGKGLEWVAQIKAKSNNYATYYAESVKGRFTISRDDSKNSLYLQMNSLKTEDTAVYYCRYVHYGAYYGVGAWGQGTTVTVSS VL: DIVMTQSPLSLPVTPGEPASISCRSSQSLVHSNRNTYLHWYQQKPGQAPRLLIYKVSNRFSGVPDRFSGSGSGTDFTLKISRVEAEDVGVYYCGQGTQVPYTFGQGTKLEIK
1.18 | CE115HA000 D101I (antibody, name in Kabat numbering, V domains shown) VH: QVQLVESGGGVVQPGRSLRLSCAASGFTFSNAWMHWVRQAPGKGLEWVAQIKAKSNNYATYYAESVKGRFTISRDDSKNSLYLQMNSLKTEDTAVYYCRYVHYGAYYGVIAWGQGTTVTVSS VL: DIVMTQSPLSLPVTPGEPASISCRSSQSLVHSNRNTYLHWYQQKPGQAPRLLIYKVSNRFSGVPDRFSGSGSGTDFTLKISRVEAEDVGVYYCGQGTQVPYTFGQGTKLEIK
0.79 | CE115HA000 D101T (antibody, name in Kabat numbering, V domains shown) VH: QVQLVESGGGVVQPGRSLRLSCAASGFTFSNAWMHWVRQAPGKGLEWVAQIKAKSNNYATYYAESVKGRFTISRDDSKNSLYLQMNSLKTEDTAVYYCRYVHYGAYYGVTAWGQGTTVTVSS VL: DIVMTQSPLSLPVTPGEPASISCRSSQSLVHSNRNTYLHWYQQKPGQAPRLLIYKVSNRFSGVPDRFSGSGSGTDFTLKISRVEAEDVGVYYCGQGTQVPYTFGQGTKLEIK
1.33 | CE115HA000 D101V (antibody, name in Kabat numbering, V domains shown) VH: QVQLVESGGGVVQPGRSLRLSCAASGFTFSNAWMHWVRQAPGKGLEWVAQIKAKSNNYATYYAESVKGRFTISRDDSKNSLYLQMNSLKTEDTAVYYCRYVHYGAYYGVVAWGQGTTVTVSS VL: DIVMTQSPLSLPVTPGEPASISCRSSQSLVHSNRNTYLHWYQQKPGQAPRLLIYKVSNRFSGVPDRFSGSGSGTDFTLKISRVEAEDVGVYYCGQGTQVPYTFGQGTKLEIK
0.2 | CE115HA000 D101P (antibody, name in Kabat numbering, V domains shown) VH: QVQLVESGGGVVQPGRSLRLSCAASGFTFSNAWMHWVRQAPGKGLEWVAQIKAKSNNYATYYAESVKGRFTISRDDSKNSLYLQMNSLKTEDTAVYYCRYVHYGAYYGVPAWGQGTTVTVSS VL: DIVMTQSPLSLPVTPGEPASISCRSSQSLVHSNRNTYLHWYQQKPGQAPRLLIYKVSNRFSGVPDRFSGSGSGTDFTLKISRVEAEDVGVYYCGQGTQVPYTFGQGTKLEIK
1.26 | CE115HA000 D101A (antibody, name in Kabat numbering, V domains shown) VH: QVQLVESGGGVVQPGRSLRLSCAASGFTFSNAWMHWVRQAPGKGLEWVAQIKAKSNNYATYYAESVKGRFTISRDDSKNSLYLQMNSLKTEDTAVYYCRYVHYGAYYGVAAWGQGTTVTVSS VL: DIVMTQSPLSLPVTPGEPASISCRSSQSLVHSNRNTYLHWYQQKPGQAPRLLIYKVSNRFSGVPDRFSGSGSGTDFTLKISRVEAEDVGVYYCGQGTQVPYTFGQGTKLEIK
2.25 | CE115HA000 D101Q (antibody, name in Kabat numbering, V domains shown) VH: QVQLVESGGGVVQPGRSLRLSCAASGFTFSNAWMHWVRQAPGKGLEWVAQIKAKSNNYATYYAESVKGRFTISRDDSKNSLYLQMNSLKTEDTAVYYCRYVHYGAYYGVQAWGQGTTVTVSS VL: DIVMTQSPLSLPVTPGEPASISCRSSQSLVHSNRNTYLHWYQQKPGQAPRLLIYKVSNRFSGVPDRFSGSGSGTDFTLKISRVEAEDVGVYYCGQGTQVPYTFGQGTKLEIK
1.2 | CE115HA000 D101M (antibody, name in Kabat numbering, V domains shown) VH: QVQLVESGGGVVQPGRSLRLSCAASGFTFSNAWMHWVRQAPGKGLEWVAQIKAKSNNYATYYAESVKGRFTISRDDSKNSLYLQMNSLKTEDTAVYYCRYVHYGAYYGVMAWGQGTTVTVSS VL: DIVMTQSPLSLPVTPGEPASISCRSSQSLVHSNRNTYLHWYQQKPGQAPRLLIYKVSNRFSGVPDRFSGSGSGTDFTLKISRVEAEDVGVYYCGQGTQVPYTFGQGTKLEIK
